Laboratory results reported in article PMC3916536.

What was measured:
[1] = molecular target: HLA-A2/WT β2m/NY-ESO-1(Y1V9) complex; test: native MS; nano-ESI-MS, 10 μM protein, 100 mM ammonium acetate, pH 7, declustering potential 50 V, complexes with peptide I
[2] = molecular target: HLA-A2/D76N β2m/NY-ESO-1(Y1V9) complex; test: as above

Substance: HLA-A2/WT β2m/NY-ESO-1(Y1V9) complex (from UniProt P61769 21-119) (peptide-MHC)
- stoichiometry N [1]: 2

Substance: HLA-A2/D76N β2m/NY-ESO-1(Y1V9) complex (from UniProt P61769 21-119) (peptide-MHC)
- stoichiometry N [2]: 2
